Test results reported in US20080280300A1, “Method” (PLASTICELL LIMITED, priority 2005, published 2008).

B1: M-CSF: murine macrophage colony stimulating factor (R&D Systems), haematopoietic growth factor (protein, UniProt P07141 33-552, looked up)
Macrophage colony-stimulating …: KEVSEHCSHMIGNGHLKVLQQLIDSQMETSCQIAFEFVDQEQLDDPVCYLKKAFFLVQDIIDETMRFKDNTPNANATERLQELSNNLNSCFTKDYEEQNKACVRTFHETPLQLLEKIKNFFNETKNLLEKDWNIFTKNCNNSFAKCSSRDVVTKPDCNCLYPKATPSSDPASASPHQPPAPSMAPLAGLAWDDSQRTEGSSLLPSELPLRIEDPGSAKQRPPRSTCQTLESTEQPNHGDRLTEDSQPHPSAGGPVPGVEDILESSLGTNWVLEEASGEASEGFLTQEAKFSPSTPVGGSIQAETDRPRALSASPFPKSTEDQKPVDITDRPLTEVNPMRPIGQTQNNTPEKTDGTSTLREDHQEPGSPHIATPNPQRVSNSATPVAQLLLPKSHSWGIVLPLGELEGKRSTRDRRSPAELEGGSASEGAARPVARFNSIPLTDTGHVEQHEGSSDPQIPESVFHLLVPGIILVLLTVGGLLFYKWKWRSHRDPQTLDSSVGRPEDSSLTQDEDRQVELPV
B2: IL-5: mouse interleukin 5 (R&D Systems), haematopoietic growth factor (protein, UniProt P04401 21-133, looked up)
Interleukin-5: MEIPMSTVVKETLTQLSAHRALLTSNETMRLPVPTHKNHQLCIGEIFQGLDILKNQTVRGGTVEMLFQNLSLIKKYIDRQKEKCGEERRRTRQFLDYLQEFLGVMSTEWAMEG
B3: TPO: murine thrombopoietin (R&D Systems), haematopoietic growth factor (protein, UniProt P40226 22-356, looked up)
Thrombopoietin: SPVAPACDPRLLNKLLRDSHLLHSRLSQCPDVDPLSIPVLLPAVDFSLGEWKTQTEQSKAQDILGAVSLLLEGVMAARGQLEPSCLSSLLGQLSGQVRLLLGALQGLLGTQLPLQGRTTAHKDPNALFLSLQQLLRGKVRFLLLVEGPTLCVRRTLPTTAVPSSTSQLLTLNKFPNRTSGLLETNFSVTARTAGPGLLSRLQGFRVKITPGQLNQTSRSPVQISGYLNRTHGPVNGTHGLFAGTSLQTLEASDISPGAFNKGSLAFNLQGGLPPSPSLAPDGHTPFPPSPALPTTHGSPPQLHPLFPDPSTTMPNSTAPHPVTMYPHPRNLSQET

System: myeloid progenitors derived from mouse embryonic stem cells (D3 ES cells) on microcarriers
Assay: mESC-based cell assay for regenerative drugs: conversion of myeloid progenitors to macrophage (DQ-ovalbumin)
Conditions: 48 h, triplicate, basal level 1%
Description: A screen was performed to identify regenerative drugs capable of stimulating the myeloid lineages of the haematopoietic system. The screen was performed by using a series of culture steps to differentiate mouse embryonic stem cells (mESC) seeded on microcarriers into progenitors of the myeloid lineages, and subsequently subjecting these to culture conditions in the presence or absence of the lineage specific haematopoietic growth factors TPO, M-CSF and IL-5, or the control compound Vitamin C which is reported to affect cell survival but is not a haematopoietic growth factor. After 48 hours the effect on myeloid cell differentiation was assessed using the appearance of macrophages as a surrogate assay. This screen identified TPO and M-CSF as haematopoietic regenerative drugs capable of stimulating the myeloid lineage.
On the day preceding day 1 of the experiment, approximately 1.5×10^4 biotinylated micocarriers equilibrated in medium A (IMDM (Gibco), 15% KOSR, 1% NEAA, 0.5% pen/strep, 0.1 mM β-ME, 1000 U/ml LIF and 1.5×10^−4 M, 1-thioglycerol (MTG; Sigma)) were added to 100 ml of medium A containing approximately 4.5×10^6 ES cells, split into three equal aliquots placed in wells of a 100 mm square petri dish (Bibby Sterilin) and incubated overnight.
In order to prepare myeloid progenitors a two step method was employed. Beads seeded with mESC as described above were incubated in IMDM containing […] retinoic acid for 72 h. The beads were then washed in PBS and transferred to Stemline™ Haematopoietic Expansion Medium (Sigma) containing 40 ng/ml SCF, 2.5 ng TGFβ1, 5 ng/ml BMP2 and 20 ng/ml TPO and incubated for 48 h:
Beads blearing myeloid progenitors prepared as described above were mixed, washed in PBS and transferred to the Test Growth Medium (Stemline™Haematopoietic Expansion Medium (Sigma) supplemented with 30 ng/ml IL-3 and 20 ng/ml IL-6). Equal aliquots of approximately 100 beads were dispensed into the wells of a 48 well plate and incubated in the presence or absence of 50 μg/ml Vitamin C, 10 ng/ml IL-5, 20 ng/ml TPO and 20 ng/ml M-CSF. The screen was carried out in triplicate in wells of separate plates placed in the same incubator.
After 48 h, 1 mg of the macrophage assay reagent DQ-ovalbumin (Molecular Probes) was made up in 0.4 ml PBS and added to each well at a dilution of 1:100. Following incubation for at least 4 h, the medium was aspirated and replaced with PBS. The samples were examined on a Nikon TE2000-S inverted epifluorescent microscope using a-FITC filter set to quantitate microcarriers bearing large, round cells internally labelled with green fluorescence.
The results of the screen are reported as the average number (per cent) of microcarriers that were decorated with macrophage. […]

[1] = 20 ng/ml TPO or M-CSF in Test Growth Medium (IL-3, IL-6)

Row | Molecule | average conversion to macrophage (average number (per cent) of microcarriers decorated with macrophage) [1] [%] | further results
1 | O=C1O[C@H]([C@@H](O)CO)C(O)=C1O [Vitamin C, Ascorbic acid, reference compound] |  | average conversion to macrophage (average number (per cent) of microcarriers decorated with macrophage) (50 μg/ml Vitamin C in Test Growth Medium (IL-3, IL-6)): 0%
2 | B1 | 6 | 
3 | B2 |  | average conversion to macrophage (average number (per cent) of microcarriers decorated with macrophage) (10 ng/ml IL-5 in Test Growth Medium (IL-3, IL-6)): 0%
4 | B3 | 6 | 
